Measurements published in IntAct's records for PubMed 24843043.

B1: Outer mitochondrial transmembrane helix translocase (Saccharomyces cerevisiae), P28737 (parent)
chain: MSRKFDLKTITDLSVLVGTGISLYYLVSRLLNDVESGPLSGKSRESKAKQSLQWEKLVKRSPALAEVTLDAYERTILSSIVTPDEINITFQDIGGLDPLISDLHESVIYPLMMPEVYSNSPLLQAPSGVLLYGPPGCGKTMLAKALAKESGANFISIRMSSIMDKWYGESNKIVDAMFSLANKLQPCIIFIDEIDSFLRERSSTDHEVTATLKAEFMTLWDGLLNNGRVMIIGATNRINDIDDAFLRRLPKRFLVSLPGSDQRYKILSVLLKDTKLDEDEFDLQLIADNTKGFSGSDLKELCREAALDAAKEYIKQKRQLIDSGTIDVNDTSSLKIRPLKTKDFTKKLRMDATSTLSSQPLD
partner: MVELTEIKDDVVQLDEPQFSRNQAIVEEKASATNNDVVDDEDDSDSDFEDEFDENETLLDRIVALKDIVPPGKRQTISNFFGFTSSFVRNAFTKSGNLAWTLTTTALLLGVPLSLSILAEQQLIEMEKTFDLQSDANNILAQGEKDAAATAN
B2: Outer mitochondrial transmembrane helix translocase (Saccharomyces cerevisiae), P28737 (parent)
chain: B1 chain
partner: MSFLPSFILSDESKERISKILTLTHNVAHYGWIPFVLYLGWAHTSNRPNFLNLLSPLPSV

Variants of: B1
Conditions: with tom22_yeast TOM22, P49334

effect of a mutation on the interaction	Variant
increasing interaction	E193Q

Variants of: B2
Conditions: with tom7_yeast TOM7, P53507

effect of a mutation on the interaction	Variant
increasing interaction	E193Q
